Measured values taken from US20250206836A1 (ONA THERAPEUTICS S L, published 2025).

What was measured:
[1] = target: T1, human CD36 (on HEK 293 or SCC25 cells) (human, UniProt P16671 2-472); experiment: cell-based or functional assay
[2] = target: T1, human CD36 (on HEK 293 or SCC25 cells); experiment: cell-based or functional assay; remark: listed apart in the source
[3] = target: T1, human CD36 (on HEK 293 or SCC25 cells); experiment: cell-based or functional assay; remark: listed apart in the source
[4] = target: T1, human CD36 (on HEK 293 or SCC25 cells); experiment: FACS, SCC25 cells stably overexpressing human CD36
Description: (§1) After transiently transfecting the HEK 293 cells with a CD36 expression construct, cells were treated with three-fold serial dilution of each candidate antibody (10 dilutions starting at 500 nM). […] After incubation with the cells, an anti-human fluorescently labelled antibody was added to the cell media, allowed to incubate further, and the unbound antibody was washed off of the cells. Subsequently, the cells were subjected to FACS analysis to determine antibody binding to the cells. The results were fitted to a sigmoidal titration curve. Using a nonlinear regression model, the EC₅₀ values for each antibody were calculated from the GeoMFI and MFI values using the log(agonist) versus response (four parameters) fitting on the data transformed according to X=Log[X] in GraphPad PRISM.

[5] = target: T2, purified biotin-tagged human CD36 (human, UniProt P16671 30-439, limits assumed, biotin tag, site not stated); experiment: AlphaScreen competition; competitor FA6-152 on acceptor beads
T2 sequence (P16671 30-439 limits assumed): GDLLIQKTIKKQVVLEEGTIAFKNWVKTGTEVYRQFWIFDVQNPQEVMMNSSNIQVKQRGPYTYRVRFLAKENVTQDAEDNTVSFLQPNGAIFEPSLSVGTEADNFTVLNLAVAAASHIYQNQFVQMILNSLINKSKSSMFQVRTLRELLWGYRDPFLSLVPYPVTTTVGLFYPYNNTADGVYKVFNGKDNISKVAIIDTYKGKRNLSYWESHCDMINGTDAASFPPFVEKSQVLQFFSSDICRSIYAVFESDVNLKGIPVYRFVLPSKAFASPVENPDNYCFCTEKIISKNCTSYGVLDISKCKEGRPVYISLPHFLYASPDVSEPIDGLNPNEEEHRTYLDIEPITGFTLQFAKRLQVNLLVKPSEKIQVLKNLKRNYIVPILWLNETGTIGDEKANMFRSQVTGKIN

[6] = target: T1, human CD36 (on HEK 293 or SCC25 cells); experiment: FACS, HEK 293 cells transiently overexpressing CD36;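 also: antibody binding to transfected cells detected by flow cytometry with a fluorescent anti-human secondary antibody, EC50 from a four-parameter sigmoidal fit of mean fluorescence intensity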
Description: as §1

[7] = target: T3, nonhuman primate CD36 (on HEK 293 cells) (cynomolgus monkey / rhesus macaque, UniProt P16671 2-472 (human entry)); experiment: as above
T3 construct: also called non-human primate CD36 (cynomolgus)
T3 sequence (P16671 other isoform, or with tags, fused parts or gaps limits assumed): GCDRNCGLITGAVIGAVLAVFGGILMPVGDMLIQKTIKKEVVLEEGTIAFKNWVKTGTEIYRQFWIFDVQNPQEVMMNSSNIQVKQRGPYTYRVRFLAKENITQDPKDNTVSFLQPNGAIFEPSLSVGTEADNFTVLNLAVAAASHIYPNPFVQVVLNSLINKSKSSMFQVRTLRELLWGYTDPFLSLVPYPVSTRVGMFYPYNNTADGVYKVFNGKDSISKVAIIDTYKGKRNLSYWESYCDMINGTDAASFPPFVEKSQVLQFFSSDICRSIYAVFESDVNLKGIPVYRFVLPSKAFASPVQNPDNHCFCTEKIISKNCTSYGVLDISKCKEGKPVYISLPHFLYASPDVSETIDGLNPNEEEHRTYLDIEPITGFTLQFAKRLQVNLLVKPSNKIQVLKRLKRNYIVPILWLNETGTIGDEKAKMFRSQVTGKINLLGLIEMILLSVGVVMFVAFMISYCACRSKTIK
Description: as §1

[8] = target: T4, mouse CD36 (on HEK 293 cells) (mouse, UniProt Q08857 1-472); experiment: as above
T4 construct: also called Murine CD36
T4 sequence (Q08857 whole entry): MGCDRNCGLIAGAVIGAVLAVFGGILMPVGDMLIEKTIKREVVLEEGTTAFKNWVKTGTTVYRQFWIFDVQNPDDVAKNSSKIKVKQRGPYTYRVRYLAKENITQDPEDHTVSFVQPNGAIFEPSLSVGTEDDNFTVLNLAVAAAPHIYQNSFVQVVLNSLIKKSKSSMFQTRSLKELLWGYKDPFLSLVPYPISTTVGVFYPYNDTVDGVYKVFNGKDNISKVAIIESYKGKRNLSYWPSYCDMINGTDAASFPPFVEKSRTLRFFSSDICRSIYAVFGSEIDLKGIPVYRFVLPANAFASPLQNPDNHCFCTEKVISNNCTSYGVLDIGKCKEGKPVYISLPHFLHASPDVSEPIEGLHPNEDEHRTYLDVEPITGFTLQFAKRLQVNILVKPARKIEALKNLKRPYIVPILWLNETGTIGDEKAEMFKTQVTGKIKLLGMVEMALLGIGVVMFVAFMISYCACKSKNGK
Description: as §1

[9] = target: T2, purified biotin-tagged human CD36; experiment: AlphaScreen competition; competitor 1G04 on acceptor beads;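 also: streptavidin donor beads excited at 680 nm release singlet oxygen, and the light signal needs a nearby acceptor bead, with 30 min donor-bead incubation at 25 °C in the dark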
Description: (§2) This was done using the AlphaScreen® bead-based microplate assay. […] AlphaLISA® Streptavidin Donor Beads were then added and the mix incubated for 30 min at 25° C. in the dark. The donor bead contains a photosensitizer, which upon excitation by light at 680 nm, converts oxygen (O₂) into an excited form, singlet oxygen. Singlet oxygen molecules have a reduced lifetime (4 microseconds half-life) and can diffuse approximately 200 nm in solution before falling back to ground state. In the absence of acceptor beads, the singlet oxygen molecules fall back to ground state without producing any light signal.

human CD36 (His-tagged) = target: T5, human CD36 (His-tagged) (human, UniProt P16671 30-439); experiment: SPR (Biacore T200), His-captured CD36, bivalent analyte model
T5 construct: not shown: His tag
T5 sequence (P16671 30-439 limits assumed): as the sequence (P16671 30-439 limits assumed) above

[10] = target: T6, human CD36 (Sino Biological) (human, UniProt P16671 30-439); experiment: ELISA, plates coated with human CD36 (Sino Biological), antibody titrated, OD630nm
T6 construct: Bought protein coated on ELISA plates
T6 sequence (P16671 30-439 limits assumed): as above
Excerpt: Binding was first tested using an ELISA assay in which 96-well ELISA plates were coated with human CD36 (Sino Biological) or mouse CD36 protein.

[11] = target: T1, human CD36 (on HEK 293 or SCC25 cells); experiment: FACS, SCC25 cells stably expressing human CD36
Description: SCC25 cells were treated with 10-fold serial dilution of each antibody (5 dilutions starting at 100 nM). After incubation with the cells, an anti-human fluorescently labelled antibody was added to the cell media, allowed to incubate further, and the unbound antibody was washed off of the cells. Subsequently, the cells were subjected to FACS analysis to determine antibody binding to the cells. The results were fitted to a sigmoidal titration curve. Using a nonlinear regression model, the EC₅₀ values for each antibody were calculated from the GeoMFI and MFI values using the log(agonist) versus response (four parameters) fitting on the data transformed according to X=Log[X] in GraphPad PRISM.

[12] = target: T2, purified biotin-tagged human CD36; experiment: AlphaScreen competition; competitor 11G04 on acceptor beads
Description: as §2
For Percent Fatty Acid Uptake Inhibition in this document: test concentration or dose not given here.

T1 sequence (P16671 2-472 limits assumed): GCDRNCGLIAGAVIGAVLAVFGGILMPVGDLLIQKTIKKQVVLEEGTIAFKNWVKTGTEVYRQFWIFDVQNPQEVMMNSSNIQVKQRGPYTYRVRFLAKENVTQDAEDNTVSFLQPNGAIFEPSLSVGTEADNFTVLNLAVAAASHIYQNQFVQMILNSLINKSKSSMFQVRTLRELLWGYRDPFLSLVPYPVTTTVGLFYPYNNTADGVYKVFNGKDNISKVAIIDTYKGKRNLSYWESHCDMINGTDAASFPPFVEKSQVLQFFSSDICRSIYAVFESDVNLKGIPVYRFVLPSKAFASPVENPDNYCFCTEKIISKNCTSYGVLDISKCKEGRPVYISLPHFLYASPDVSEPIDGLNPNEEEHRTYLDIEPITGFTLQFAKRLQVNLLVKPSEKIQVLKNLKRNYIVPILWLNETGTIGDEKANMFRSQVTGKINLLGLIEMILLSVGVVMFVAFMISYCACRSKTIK

| Binder | Percent Fatty Acid Uptake Inhibition [1] | IC50 of oxLDL uptake inhibition (DiI-oxLDL, SCC25 cells) [2] | IC50 of fatty acid uptake inhibition (BODIPY FL C16, HEK hCD36 cells) [3] | EC50 [4] | EC50 [5] | EC50 [6] | EC50 [7] | EC50 [8] | EC50 [9] | Kd (human CD36 (His-tagged)) | koff (human CD36 (His-tagged)) | kon (human CD36 (His-tagged)) | EC50 (read off the curve) [10] | EC50 [11] | EC50 [12] |
| --- | --- | --- | --- | --- | --- | --- | --- | --- | --- | --- | --- | --- | --- | --- | --- |
| 13G04 (antibody, human IgG1, V domains shown, Chimeric: mouse variable regions on human IgG1 LALA (L234A/L235A); also called 013G04) VH: QVQLQQSGAELVRPGASVKLSCKASGYTFTSYWMNWVKQRPGQGLEWIGMIDPSDNETHYNQMFKDKATLTVDKSSSTAYMQLSSLTSEDSAVYYCARSDYGNGYSFYLDVWGAGTTVTVSS VL: DIVLTQSPASLAVSLGQRATISCRASESVDSYGNSFMHWYQQKPGQPPKLLIYRASNLESGIPARFSGSGSRTDFTLTINPVEADDVATYYCQQSNEDPWTFGGGTKLEIK | 52.8% | 0.26 nM | 0.2 nM | 0.26 nM | 46.8 nM | 0.31 nM | 1.06 nM | 5.93 nM | 0.17 nM | 1.5 nM | 0.0037 s⁻¹ | 2.4e+06 M⁻¹ s⁻¹ | – | – | – |
| 1G05 (antibody, V domains shown, also called LALAPG) VH: QVQLKQSGADLVRPGASVKLSCKASGYTFTDYYINWVKQRPGQGLEWIARIYPGSGNTYYNEKFKGKATLTAEKSSSTAYMQLSSLTSEDSAVYFCARGIGGGFGMDYWGQGTSVTVSS VL: SIVMTQTPKFLLVSAGDRITITCKASQSVSDDVAWYQQKPGQSPKLLIYYASNRYTGVPDRFTGSGYGTDFTFTISTVQAEDLAVYFCQQDYSSPLTFGAGTKLEIK | – | – | – | – | – | – | – | – | – | – | – | – | ~0.1 nM | 0.38 nM | – |
| 1G07 (antibody, V domains shown, also called SPLE) VH: QVQLKQSGADLVRPGASVKLSCKASGYTFTDYYINWVKQRPGQGLEWIARIYPGSGNTYYNEKFKGKATLTAEKSSSTAYMQLSSLTSEDSAVYFCARGIGGGFGMDYWGQGTSVTVSS VL: SIVMTQTPKFLLVSAGDRITITCKASQSVSDDVAWYQQKPGQSPKLLIYYASNRYTGVPDRFTGSGYGTDFTFTISTVQAEDLAVYFCQQDYSSPLTFGAGTKLEIK | – | – | – | – | – | – | – | – | – | – | – | – | – | 0.47 nM | – |
| 1G03 (antibody, V domains shown) VH: QVQLKQSGADLVRPGASVKLSCKASGYTFTDYYINWVKQRPGQGLEWIARIYPGSGNTYYNEKFKGKATLTAEKSSSTAYMQLSSLTSEDSAVYFCARGIGGGFGMDYWGQGTSVTVSS VL: SIVMTQTPKFLLVSAGDRITITCKASQSVSDDVAWYQQKPGQSPKLLIYYASNRYTGVPDRFTGSGYGTDFTFTISTVQAEDLAVYFCQQDYSSPLTFGAGTKLEIK | – | – | – | – | – | – | – | – | – | – | – | – | ~0.1 nM | 0.38 nM | – |
| 6G04 (antibody, human IgG1, V domains shown, Chimeric: mouse variable regions on human IgG1 LALA (L234A/L235A); also called 06G04; 006G04) VH: QVQLQQSGAELVMPGASVKMSCKASGYTFTDYWMHWVKQRPGQGLEWIGSIDTSDSYTTYSQKFKGKATLTVDESSSTAYMELARLTSEDSAIYYCVRGEDYEGTWFAYWGQGTLVTVSA VL: ETTVTQSPASLSVATGEKVTIRCITSTDIDDDMNWYQQKPGEPPKLLISEGNTLRPGVPSRFSSSGYGTDFVFTIENTLSEDVADYYCLQSDNMPLTFGAGTKLELK | 35.1% | 0.27 nM | 0.1 nM | 0.56 nM | 1040 nM | 0.53 nM | 4.85 nM | 1.51 nM | 1.15 nM | 0.51 nM | 0.0002 s⁻¹ | 390000 M⁻¹ s⁻¹ | – | – | – |
| 4G04 (antibody, human IgG1, V domains shown, Chimeric: mouse variable regions on human IgG1 LALA (L234A/L235A); also called 04G04; 004G04) VH: QVQLQQPGSELRSPGSSVKLSCKDFDSEVFPIAYMTWVRQKPGHGFEWIGDILPSIGGTIYGEKFEDKATLDADTVSNTAYLELNSLTSEDSAIYYCARDYYGSSYGYFDVWGAGTAVTVSS VL: DIVLTQSQKFMSTSVGDRVSVTCKASQNVGTNVAWYQQKPGQSPKALIYSASYRYSGVPDRFTGSGSGTDFTLTISNVQSEDLAEYFCQQYNSYPYTFGGGTKLEIK | – | – | 483 nM | – | 9.89 nM | – | 27.7 nM | – | 0.11 nM | – | – | – | – | – | – |

Results, then the binder that gave them:

| Percent Fatty Acid Uptake Inhibition [1] | IC50 of oxLDL uptake inhibition (DiI-oxLDL, SCC25 cells) [2] | IC50 of fatty acid uptake inhibition (BODIPY FL C16, HEK hCD36 cells) [3] | EC50 [4] | EC50 [5] | EC50 [6] | EC50 [7] | EC50 [8] | EC50 [9] | Kd (human CD36 (His-tagged)) | koff (human CD36 (His-tagged)) | kon (human CD36 (His-tagged)) | EC50 (read off the curve) [10] | EC50 [11] | EC50 [12] | Binder |
| --- | --- | --- | --- | --- | --- | --- | --- | --- | --- | --- | --- | --- | --- | --- | --- |
| 45.2% | – | 0.15 nM | 0.57 nM | – | 1.36 nM | 5.4 nM | 18.2 nM | 9.19 nM | – | – | – | – | – | 3.73 nM | 16G04 (antibody, human IgG1, V domains shown, Chimeric: mouse variable regions on human IgG1 LALA (L234A/L235A); also called 016G04) VH: EVQLQQSGPELVKPGASVKISCKTSGYTFTEYTMHWVKQSHGKSLEWIGGINPYNGGTAYNQKFKNKATLTVDISSNTAFMEFRSLTSEDSAVYYCASDYFYGDANPWFAYWGQGTLVTVSA VL: ETTVTQSPASLSMAIGEKVTIRCITSTDIDDDMNWYQQKPGEPPKLLISEGNTLRPGVPSRFSSSGYGTDFVFTIENMLSEDVADYYCLQSDNLPLTFGAGTKLELK |
| – | – | > 1000 nM | – | 5.65 nM | – | 2.2 nM | – | 0.41 nM | – | – | – | – | – | – | 15G04 (antibody, human IgG1, V domains shown, Chimeric: mouse variable regions on human IgG1 LALA (L234A/L235A); also called 015G04) VH: QVQLQQSGPELVKPGASVKISCKASGYTFSTSWMNWVKQRPGQGLEWIGRIYPGDGDTNYNGKFKGKATLTADTSSSTAYMQLSSLTSVDSAVYFCAREVYYGGYEDYGMDYWGQGTSVTVSS VL: DVVMTQTPLSLPVSLGDQASISCRSSQSLLHTNVNTYLHWYLQKPGQSPKLLIYKVSNRFSGVPDRFSGSGSGTDFTLKISRVEAEDLGVYFCSQSTHVPYTFGGGTKLEIK |
| – | – | 0.08 nM | – | 33.8 nM | 0.36 nM | 0.32 nM | – | 0.37 nM | – | – | – | – | – | – | 29G04 (antibody, human IgG1, V domains shown, Chimeric: mouse variable regions on human IgG1 LALA (L234A/L235A); also called 029G04) VH: QVQLQQSGTELVKPGASVKLSCKASGYTFTSYWMHWVKQRPGQGLEWIGEIDPSDSHTNYNQKFKGKATLTVDKSSSTAYMQLSSLTSEDSAVYYCAPIYYGLDNWGQGTTLTVSS VL: DIVLTQSQKFMSTSVGDRVSVTCKASQNVGTNVAWYQQKPGQSPKALIYSASYRYSGVPDRFTGSGSGTDFTLTISNVQSEDLAEYFCQQYNSYPLTFGAGTKLELK |
| – | – | – | – | 1.8 nM | 0.91 nM | 0.63 nM | – | 0.15 nM | – | – | – | – | – | – | 27G04 (antibody, human IgG1, V domains shown, Chimeric: mouse variable regions on human IgG1 LALA (L234A/L235A)) VH: EVQLQQSGAELLKPGASVKISCKTTGYTFSNYWIEWVKQRPGHGLEWIGEILPGSGSPKYNEKFKGKATLTADTSSNTAFMQLSSLTSEDSAVYYCAPFILENYFDYWGQGTTLTVSS VL: DIQMTQSHKFMSTSVGDRVSITCKASQDVSTAVAWYQQKPGQSPKLLIYSASYRYTGVPDRFTGSGSGTDFTFTISSVQAEDLAVYYCQQHYSTPRTFGGGTKLEIK |
